Results from patent US20250346673A1 (DUALITY BIOLOGICS SUZHOU, published 2025).
Numbering of substitutions follows the chain as printed.

Columns and labels:
[1] = target: T1, cynomolgus BDCA2 (cynomolgus monkey, UniProt A0A2K5UWP4 1-212); experiment: FACS on 293F-cynoBDCA2 cells; EC50 table under the plot, unit from the x axis (nM) [continued) d.]
T1 construct: whole, on cells; also called Cyno BDCA2; cynoBDCA2
T1 sequence: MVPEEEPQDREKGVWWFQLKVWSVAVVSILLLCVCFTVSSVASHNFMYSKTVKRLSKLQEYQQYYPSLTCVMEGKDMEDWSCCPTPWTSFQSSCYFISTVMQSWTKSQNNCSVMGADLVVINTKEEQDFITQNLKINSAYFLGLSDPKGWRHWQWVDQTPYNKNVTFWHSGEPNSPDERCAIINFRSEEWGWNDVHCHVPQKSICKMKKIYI
Description: (§1) The cells were recovered and resuspended to 2×10⁶/mL with FACS buffer (PBS+2% FBS). The cells were added to 3799 cell plates (Corning) at 100 μL/well, and the supernatant was discarded after centrifugation at 300 g. The antibodies were serially diluted with FACS buffer (Id.), the diluted antibodies were added to centrifuged cells and the cells were resuspended. The cells were incubated at 4° C. for 1 h. The incubated cells were then centrifuged at […] for 5 min and washed twice with FACS buffer. 100 μL Donkey anti-Mouse IgG (H+L) Highly Cross-Adsorbed Secondary Antibody-Alexa Fluor 488 (Invitrogen, A21202; 1:1000) secondary antibody was added to the cells, which were washed twice with FACS buffer after incubation at 4° C. for 1 h, resuspended with PBS, analyzed with FACS (BD FACS CantoTM II) instrument. The curve was fitted with GraphPad Prism6, and EC₅₀ values were calculated.

[2] = target: T2, human BDCA2 (human, UniProt Q8WTT0 1-213); experiment: cell-based or functional assay
T2 sequence (looked up): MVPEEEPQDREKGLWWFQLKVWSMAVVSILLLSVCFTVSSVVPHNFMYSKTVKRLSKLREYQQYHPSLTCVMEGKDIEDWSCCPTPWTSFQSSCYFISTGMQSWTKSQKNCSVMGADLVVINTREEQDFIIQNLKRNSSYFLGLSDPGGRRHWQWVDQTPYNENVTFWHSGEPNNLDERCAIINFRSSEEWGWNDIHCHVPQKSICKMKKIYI

[3] = target: T2, human BDCA2; experiment: FACS on CHOK1-hBDCA2 cells; EC50 table under the plot, unit from the x axis (nM) [continued) d.]
Description: as §1

[4] = target: T2, human BDCA2; experiment: FACS, CHOK1-humanBDCA2 cells
Description: (§2) The cells were recovered and resuspended to 2×10⁶/mL with FACS buffer (PBS+2% FBS). The resuspended cells were added to 3799 cell plates at 100 μL/well, and the supernatant was discarded after centrifugation at 300 g. […] The cells were incubated at 4° C. for 1 h. The incubated cells were centrifuged at […] for 5 min and washed twice with FACS buffer. 100 μL Goat anti-Human IgG (H+L) Cross-Adsorbed Secondary Antibody, Alexa Fluor 488 (Sigma, A11013; 1:1000) secondary antibody was added, washed twice with FACS buffer after incubation at 4° C. for 1 h. The cells were resuspended with PBS, then the fluorescence signal of antibodies bound to cell surface was analyzed with FACS (BD FACS CantoTM II) instrument and curves were fitted with GraphPad Prism6 to calculate EC₅₀ values for antibodies binding to BDCA2 antigen.

[5] = target: T3, human FcγRIIA (H167) (human, UniProt P12318 36-218, limits assumed, biotinylated (site not stated)); experiment: SPR (BIAcore 8K), biotinylated FcγRIIA (H167) on SA chip, antibody as analyte, 1:1 binding
T3 construct: also called Fey RIIA (H167)
T3 sequence (looked up): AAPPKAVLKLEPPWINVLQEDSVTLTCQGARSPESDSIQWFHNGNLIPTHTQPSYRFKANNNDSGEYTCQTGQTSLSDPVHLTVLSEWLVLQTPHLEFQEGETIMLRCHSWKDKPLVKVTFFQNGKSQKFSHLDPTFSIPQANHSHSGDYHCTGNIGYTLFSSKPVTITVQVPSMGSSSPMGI
Description: (§3) Antibody kinetics or affinity parameters were measured using BIAcore 8K and freshly fixed biotinylated human Fe γ RIIA(R167)/Fc γ RIIA (H167) SA chips. The experiment was run at 25° C. with a running buffer of 1×HBS-EP+(10 mM HEPES pH 7.4, 150 mM NaCl, 3 mM EDTA, 0.05% Surfactant P20). […] The binding and dissociation times of the antibody were 60 and 90 seconds, respectively. Two zero concentration samples are used to remove background signals. The sample was injected in a multi cycle manner, the analyte can be fully dissociated from the chip surface at the end of each cycle, and no regeneration step was applied. Data analysis was perform using Biacore Insight Evaluation Software (Version 2.0.15.12933). After deducting the reference channel (flow cell 1) and two zero concentration signals, affinity analysis was performed using a 1:1 binding model or steady-state model for curve fitting and calculation of kinetic parameters.

[6] = target: T4, human FcγRIIA (R167) (human, UniProt P12318 36-218, limits assumed, biotinylated (site not stated)); experiment: SPR (BIAcore 8K), biotinylated FcγRIIA (R167) on SA chip, antibody as analyte, 1:1 binding
T4 construct: also called Fe γ RIIA(R167); Fcγ RIJA (R167)
T4 sequence (looked up): T3 sequence (looked up) with H132R
Description: as §3

[7] = target: T1, cynomolgus BDCA2; experiment: FACS, 293F-cynoBDCA2 cells
Description: as §2

[8] = target: T2, human BDCA2; experiment: cell-based or functional assay; remark: listed apart in the source
[9] = target: T5, Recombinant Human BDCA2 (human, UniProt Q8WTT0 45-213, limits assumed); experiment: SPR (BIAcore), antibody captured by anti-human IgG (Fc), hBDCA2 as analyte, 1:1 model
T5 construct: also called hBDCA2 (SPR analyte); human BDCA2 antigen
T5 sequence (looked up): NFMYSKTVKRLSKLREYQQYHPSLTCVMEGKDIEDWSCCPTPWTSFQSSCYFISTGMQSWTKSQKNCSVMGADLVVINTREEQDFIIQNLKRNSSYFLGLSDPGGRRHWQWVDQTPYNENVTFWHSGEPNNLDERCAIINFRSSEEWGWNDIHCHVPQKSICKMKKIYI
Description: Then 1 M ethanolamine was injected at 10 μL/min flow rate for 420 seconds, and the excess active carboxyl groups on chip were blocked. The humanized antibodies were injected into a detection channel flow cell at flow rate of 10 μL/min for 60 s for capture after diluting to 1 μg/mL using running buffer. […] The sample hBDCA2 to be tested of each concentration gradient was injected into the detection channel at 30 μL/min flow rate, two samples at 0 concentration were used to remove background signal. The binding and dissociation times between antigen and antibody were 180 and 400 sec, respectively. An analysis of data was performed using Biacore Insight Evaluation Software (Version 2.0. 15.12933). A 1:1 binding model was selected for curve fitting and kinetic parameters were calculated after subtraction of signal of the reference channel (flow cell 1) and at 0 concentration.

B1: mAb020 (antibody, V domains shown)
VH: DVQLQESGPGLVKPSQSLSLTCSVTGYSIASGYYWNWIRQFPGNKLEWMGYISFDGTYNYNPSLKDRFSITRDTSKNQFFLKLNSVTTEDTATYYCARGVDYPNAIDWWGQGTSVTVSS
VL: DIVLTQSPASLAVSLGQRATISCRASESVSMHVTHLIHWYQQKPGQPPKLLIYVASNLESGVPARFSGSGSETDFTLNIHPVEEEDAATYFCQQSFEDPWTFGGGTKLEIK
notes: Mouse hybridoma antibody
[1]
  EC50: 1.9 nM
[2]
  IC50 for inhibiting cytokine IFNα release, CpG-A stimulated human PBMC: 6.15 pM
[3]
  EC50: 0.707 nM

B2: mAb022 (antibody, V domains shown)
VH: B1 VH with A30T, N104K, I106M
VL: B1 VL
notes: Mouse hybridoma antibody
[1]
  EC50: 1.96 nM
[2]
  IC50 for inhibiting cytokine IFNα release, CpG-A stimulated human PBMC: 6.23 pM
[3]
  EC50: 0.723 nM

B3: mAb030 (antibody, V domains shown)
VH: DVQLQESGPGLVKPSQSLSLTCSVTGYSITSAYYWNWIRQFPGNKLECMGYISYDGSNYYNPSLKNRISITRDTSKNQFFLSLNSVTTEDTATYFCVRGGDYDDGGFAYWGQGTLVTVSA
VL: DIQMTQSPASLSASVGETVTITCRASGNIHNYLAWYQQKQGKSPQLLVYNAKTLADGVPSRFSGSGSETQYSLKINSLQPEDFGNYFCQHFWIIPYTFGGGTKLEIK
notes: Mouse hybridoma antibody
[1]
  EC50: 0.566 nM
[2]
  IC50 for inhibiting cytokine IFNα release, CpG-A stimulated human PBMC: 4.76 pM
[3]
  EC50: 0.293 nM

B4: mAb027 (antibody, V domains shown)
VH: B3 VH with I38V, K45Q, S53T, Y59N, S82K, F95Y
VL: B3 VL with A55V, E68G, Q70E, N85I, K107R
notes: Mouse hybridoma antibody
[1]
  EC50: 0.68 nM
[2]
  IC50 for inhibiting cytokine IFNα release, CpG-A stimulated human PBMC: 70 pM
[3]
  EC50: 0.302 nM

B5: mAb024 (antibody, V domains shown)
VH: EVQLVESGGDLVKPGGSLKLSCAASGFTFSSFGMSWVRQTPDKRLDWVATISSGDSYTYYPDSVKGRFSISRDNAKNTLYLQMSSLKSEDTAVYYCARQIYYDYAYYFDYWGQGTTLTVSS
VL: B1 VL with M31F, H32R, V33S, T34S, I37M, Q41R, V54A, T89A, F96I, W100P
notes: Mouse hybridoma antibody
[1]
  EC50: 1.04 nM
[2]
  IC50 for inhibiting cytokine IFNα release, CpG-A stimulated human PBMC: 2.74 pM
[3]
  EC50: 0.343 nM

B6: mAb019 (antibody, V domains shown)
VH: EVKLVESGGDLVQPGGSLKLSCAASGFTFSDYYMYWVRQTPEKRLEWVAYISYSGDSTYYPDTVKGRFTISRDNAKNTLFLQMSRLKSEDTAMYYCARHSPSFPYYFDYWGQGTALTVSS
VL: EIVLTQSPAITAASLGQKVTITCSASSSVSYMHWYQQKSGTSPKPWIYEISKLASGVPARFSGSGSGTSYSLTISSMEAEDAAIYYCQLWNYPLITFGGGTNLEIK
notes: Mouse hybridoma antibody
[1]
  EC50: 0.485 nM
[2]
  IC50 for inhibiting cytokine IFNα release, CpG-A stimulated human PBMC: 3.32 pM
[3]
  EC50: 0.271 nM

B7: Hu033-03 (antibody, human IgG1, kappa)
heavy: not shown
light: DIVLTQSPASLAVSPGQRATITCRASESVSFRTSHLMHWYQQKPGQPPKLLIYGASNLESGVPARFSGSGSETDFTLTINPVEAEDTANYFCQQSIEDPPTFGGGTKVEIKRTVAAPSVFIFPPSDEQLKSGTASVVCLLNNFYPREAKVQWKVDNALQSGNSQESVTEQDSKDSTYSLSSTLTLSKADYEKHKVYACEVTHQGLSSPVTKSFNRGEC
notes: Humanized IgG1, wild-type Fc; also called Hu033-03(BM3)
[4]
  EC50: 0.5 nM
[5]
  Kd: 941 nM
  koff: 0.339 s⁻¹
  kon: 361000 M⁻¹ s⁻¹
[6]
  Kd: 510 nM
  koff: 0.782 s⁻¹
  kon: 1.53e+06 M⁻¹ s⁻¹
[7]
  EC50: 1.4 nM
[8]
  EC50 (nM), inhibition of CpG-A stimulated IFNα release from human PBMC: 0.01 nM
[9]
  Kd: 0.236 nM
  koff: 0.000136 s⁻¹
  kon: 576000 M⁻¹ s⁻¹

B8: Hu033-20 (antibody, human IgG1, kappa)
heavy: not shown
light: DIVMTQSPDSLAVSLGERATINCRASESVSFRTSHLMHWYQQKPGQPPKLLIYGASNLESGVPDRFSGSGSGTDFTLTISSLQAEDVAVYYCQQSIEDPPTFGGGTKVEIKRTVAAPSVFIFPPSDEQLKSGTASVVCLLNNFYPREAKVQWKVDNALQSGNSQESVTEQDSKDSTYSLSSTLTLSKADYEKHKVYACEVTHQGLSSPVTKSFNRGEC
notes: Humanized IgG1, wild-type Fc; also called Hu033-20(BM3)
[4]
  EC50: 0.64 nM
[5]
  Kd: 981 nM
  koff: 0.431 s⁻¹
  kon: 439000 M⁻¹ s⁻¹
[6]
  Kd: 578 nM
  koff: 0.838 s⁻¹
  kon: 1.45e+06 M⁻¹ s⁻¹
[7]
  EC50: 1.22 nM
[8]
  EC50 (nM), inhibition of CpG-A stimulated IFNα release from human PBMC: 0.01 nM
[9]
  Kd: 0.268 nM
  koff: 0.000149 s⁻¹
  kon: 556000 M⁻¹ s⁻¹

B9: mAb021 (antibody, V domains shown)
VH: B3 VH with S53T, S57N, N61S, S82N, V97A, Y109F
VL: B3 VL with Q37H, T53S, A55V, E68G, K74R, N85S, F87Y, I94V, K107I
notes: Mouse hybridoma antibody
[1]
  EC50: 0.566 nM
[2]
  IC50 for inhibiting cytokine IFNα release, CpG-A stimulated human PBMC: 4.05 pM
[3]
  EC50: 0.328 nM
